The assay deals with T1, TrkB.T1 peptide FVLFHKIPLDG (not fully specified).
T1 construct: also called target peptide
T1 peptide: FVLFHKIPLDG
The assay is described as follows: bead-based flow cytometry, peptide on beads. An excerpt:
Murine monoclonal antibody (clone FH1D12) was generated at the Fred Hutchinson Antibody Technology Core Facility. Briefly, male and female 20-week-old C57BL6 mice that were characterized as genetic null for TrkB.T1 (Dorsey, S. G. et al.) In vivo restoration of physiological levels of truncated TrkB.T1 receptor rescues neuronal cell death in a trisomic mouse model. Neuron 51, 21-28 (2006)) were immunized with TrkB.T1 peptide Ac—C(dPEG4)[…]-OH (SEQ ID NO:1) maleimide coupled to KLH carrier protein. Following a 12+ week boosting protocol splenocytes were isolated from high titer mice and electrofused to a subclone of the P3x63-Ag8 myeloma cell line (BTX, Harvard Apparatus). Hybridomas secreting peptide specific antibody were identified and isolated using a ClonePix2 (Molecular Devices, CPII) colony picker. Antibodies from the picked clones were validated for peptide binding by flow cytometry using a cytometric bead array carrying the target peptide. Clone FH1D12 was subcloned (CPII) followed by validation for peptide binding by bead-based flow cytometry. Affinity purified IgG2b lambda from the hybridoma was further characterized by Western blot analysis and IHC tissue staining. Antibody development was performed in Holland Lab and with the Antibody Technology Resource (Fred Hutchinson Cancer Research Center).
On the technique in general: A flow cytometer gives signals particle by particle.

No end group written: not given here.

B1: Murine monoclonal antibody (clone FH1D12) to TrkB.T1 (antibody, V domains shown)
VH: VQLQQSGPELARPWASVKISCQAFYTFSRGIHFDIRNTMYWIQWVKQRPGQGLEWIGAIYPGNGDPTYSQNFKDKATLTADKSSNTAYMQLSSLTSEDSAVYYCARYDYGGGFTYWGQGTLVTVSA
VL: QTVVTQESALTTSPGETVTLTCRSSTGAVTTSNYANWVQEKPDHLFTGLIGGINNRAPGVPARFSGSLIGDKAVLTITGAQTEDEAIYFCALWYSNHWVFGGGTKLTVL
notes: also called SPEH1_D12; antibody clone D12
For B1, the binding result is listed as “binds”.

Values taken from patent publication US20230103618A1 (FRED HUTCHINSON CANCER CENTER, published 2023).
